Paper PMC10403576, “The Ycf48 accessory factor occupies the site of the oxygen-evolving manganese cluster during photosystem II biogenesis” (Nature Communications, 2023)

T1: PsaI subunit of PSI (Synechocystis sp. PCC 6803, UniProt Q55330 1-40)
T1 construct: PsaI of Synechocystis sp; PCC 6803; source: endogenous, Synechocystis sp; PCC 6803 strain His-D2/ΔCP47; co-purified with His-tagged D2 (Ni-NTA, sucrose gradient)
T1 chain (looked up): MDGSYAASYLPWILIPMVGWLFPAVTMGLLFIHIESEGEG

B1: PsbI subunit of PSII (natural protein)
chain: not shown
notes: PsbI of Synechocystis sp; PCC 6803; source: endogenous, Synechocystis sp; PCC 6803 strain His-D2/ΔCP47; co-purified with His-tagged D2 (Ni-NTA, sucrose gradient)
B2: PsbF, beta subunit of Cyt b-559 (natural protein)
chain: not shown
notes: PsbF (cytochrome b-559 beta subunit) of Synechocystis sp; PCC 6803; source: endogenous, Synechocystis sp; PCC 6803 strain His-D2/ΔCP47; co-purified with His-tagged D2 (Ni-NTA, sucrose gradient)

What was measured:
[1] = molecular target: T2, PsaB RC subunit of PSI (Synechocystis sp. PCC 6803, UniProt P29255 1-731); assay: cryo-EM structure; RCII/PSI complex co-purified from Synechocystis via His-tagged D2; 0.1% FOM; two classes at 3.2 Å and 3.1 Å, PSI-focused map at 2.9 Å; details: both partners purified
T2 construct: PsaB of Synechocystis sp; PCC 6803; source: endogenous, Synechocystis sp; PCC 6803 strain His-D2/ΔCP47; co-purified with His-tagged D2 (Ni-NTA, sucrose gradient)

[2] = molecular target: T1, PsaI subunit of PSI; assay: as above; details: both partners purified

T2 sequence (P29255 whole entry): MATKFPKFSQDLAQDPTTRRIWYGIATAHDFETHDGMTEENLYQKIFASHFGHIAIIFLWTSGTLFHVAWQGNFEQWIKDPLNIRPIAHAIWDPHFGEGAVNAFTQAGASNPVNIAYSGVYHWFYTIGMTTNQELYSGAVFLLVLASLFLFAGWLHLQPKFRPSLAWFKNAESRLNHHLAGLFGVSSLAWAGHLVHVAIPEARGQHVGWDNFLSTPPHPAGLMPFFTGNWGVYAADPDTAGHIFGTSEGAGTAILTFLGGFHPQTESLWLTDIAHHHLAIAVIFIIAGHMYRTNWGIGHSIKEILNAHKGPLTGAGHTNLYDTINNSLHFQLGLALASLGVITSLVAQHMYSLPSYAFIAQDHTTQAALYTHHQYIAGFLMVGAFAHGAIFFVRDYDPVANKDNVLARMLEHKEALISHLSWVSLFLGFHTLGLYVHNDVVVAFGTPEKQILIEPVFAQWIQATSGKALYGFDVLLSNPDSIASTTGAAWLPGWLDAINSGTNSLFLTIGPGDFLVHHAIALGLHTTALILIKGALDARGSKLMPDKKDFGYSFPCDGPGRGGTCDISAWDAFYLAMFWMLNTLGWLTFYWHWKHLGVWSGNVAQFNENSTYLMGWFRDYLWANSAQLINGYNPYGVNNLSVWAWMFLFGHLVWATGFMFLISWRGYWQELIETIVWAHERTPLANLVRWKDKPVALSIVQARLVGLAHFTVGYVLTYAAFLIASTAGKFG

| Binder | binding result [1] | binding result [2] |
| --- | --- | --- |
| B1 | binds | – |
| B2 | – | binds |
